US20200339684A1 (published 2020)

T1: human CD83 on the cell surface (KM-H2, L428, FDCP1 and BB88 cells transfected with full length human CD83) (human, UniProt Q01151 20-205)
T1 sequence (looked up): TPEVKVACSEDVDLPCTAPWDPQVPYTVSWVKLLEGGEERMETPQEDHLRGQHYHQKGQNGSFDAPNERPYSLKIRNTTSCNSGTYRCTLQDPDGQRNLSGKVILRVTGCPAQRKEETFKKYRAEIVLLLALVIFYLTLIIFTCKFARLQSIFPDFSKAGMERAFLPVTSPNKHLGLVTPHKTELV

T2: recombinant human CD83 extracellular domain with His tag (hCD83ECD-His) (human, UniProt Q01151 20-144)
T2 construct: extracellular domain; Expressed in CHO cells and purified by IMAC; also called recombinant human CD83ECD-His; recombinant CD83; not shown: His tag
T2 sequence (looked up): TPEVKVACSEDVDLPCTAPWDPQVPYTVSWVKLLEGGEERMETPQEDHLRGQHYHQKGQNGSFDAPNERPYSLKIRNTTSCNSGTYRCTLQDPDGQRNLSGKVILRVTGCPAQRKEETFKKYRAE

B1: 3C12.C IgG (affinity matured, VL shuffled variant of 3C12, human IgG1 kappa) (antibody, V domains shown)
VH: EVQLQESGGGVVQPGRSLRLSCAASGFTFSSYAMHWVRQAPGKGLEWVAVISYDGSNKYYADSVKGRFTISRDNSKNTLYLQMNSLRAEDTAMYYCARHYYYGMDVWGQGTTLTVSS
VL: EIVLTQSPSSLSASVGDRVTITCRASQGIRNYLAWYQQKPGKVPKLLIYATSTLQSGVPSRFSGSRSGTEFTLTISSLHPEDFATYYCQQVDRFPYTFGQGTKVELKR
B2: 3C12.Kif IgG (3C12 produced in the presence of kifunensine, low-fucose IgG) (antibody, V domains shown)
VH: B1 VH
VL: EIVMTQSPSLLSASLGDRVTITCRASQGIKNYFAWYQQRPGKAPKLLIYATSNLQSGVPSRFSGSGSGTEFTLTISSLQPEDFATYYCQQLGAYPLTFGGGTKLELKR
modifications: N-glycan without fucose (high mannose, predominantly GlcNAc2Man9), produced with 2 µg/mL kifunensine
B3: 3C12.WT Fab fragment (Fab, V domains shown)
VH: B1 VH
VL: B2 VL
notes: also called 3C12 Fab; wildtype 3C12 Fab
B4: 3C12.C Fab fragment (Fab, V domains shown)
VH: B1 VH
VL: B1 VL
B5: 3C12.E Fab fragment (Fab, V domains shown)
VH: B1 VH
VL: EIVLTQSPSSLSASVGDRVTITCRASQGISNYLAWYQQKPGKVPKLLIYAASTLQSGVPSRFSGSGSGTHFTLTISSLQPEDVATYYCQKCNSAPYTFGQGTKVELKR
B6: 3C12.D Fab fragment (Fab, V domains shown)
VH: B1 VH
VL: EIQMTQSPSSLSASVGDRVTITCRASQGISSWLAWYQQKPGKAPKLLIYAASSLQSGVPSRFSGSGSGTEFTLTISSLQPDDFATYYCQKLSSYPYTFGGGTKVELKR
B7: 3C12.B Fab fragment (Fab, V domains shown)
VH: B1 VH
VL: EVVMTQSPSFLSASIGDRVSITCRTSQGISNHLAWYQQKPGKAPKLLIYAASSLQSGVPSRFSGSGSGTDFTLTISSLQPEDIATYYCQQVNSYPYTFGQGTRLELKR

Assays:
[1] = biological target: T1, human CD83 on the cell surface (KM-H2, …); assay: cell-based or functional assay
[2] = biological target: T2, recombinant human CD83 extracellular …; assay: BiaCore SPR, Fab over immobilised hCD83ECD
Experimental: (§1) Fab fragments were generated by papain digestion with Pierce Fab MicroFab Preparation Kit, as per the manufacturer's instructions except that the kit-provided Protein A resin was replaced with MAbSelect SuRE resin (Seldon et al., J. Biomol. Tech. 22: 50-2, 2011). Fab were diluted in HBS-EP buffer consisting of 10 mM Hepes, 150 mM Sodium Chloride, 3 mM EDTA, and 0.005% Polysorbate 20 (GE Healthcare). Diluted Fab were assessed for affinity using a BiaCore3000 (GE Healthcare) instrument equipped with a CMS chip coupled with 100 Resonance Units (RU) of hCD83ECD-His protein, using the Kinetic Analysis wizard protocol. Kinetic rates were estimated using BiaEvaluation Software (GE Healthcare) using the inbuilt 1:1 binding model with mass transfer limitations.

[3] = biological target: T2, recombinant human CD83 extracellular …; assay: BiaCore SPR, Fab over immobilised hCD83ECD, 1:1 model with mass transfer
Experimental: as §1
(§2) FIG. 7A graphically highlights these improvements of 3C12.C binding relative to 3C12.WT, as higher binding signal intensity (i.e., RU) is achieved using reduced concentrations of the VL shuffled variant during the […] Kₒₙ-dependent Association Phase. Similarly, a slower off-rate is observed for 3C12.C Fab during the Koff-dependent dissociation phase.

[4] = biological target: T2, recombinant human CD83 extracellular …; assay: Biacore SPR, Fab
Experimental: as §1, §2

| Binder | ADCC potency in a chromium release assay, fold against 3C12.WT [1] [fold] | Kd [2] [nM] | koff [2] [s⁻¹] | kon [2] [M⁻¹ s⁻¹] | Kd [3] [nM] | koff [3] [s⁻¹] | kon [3] [M⁻¹ s⁻¹] | fold reduction in on-rate relative to 3C12 wildtype [4] [fold] |
| --- | --- | --- | --- | --- | --- | --- | --- | --- |
| B1 | > 25 | – | – | – | – | – | – | – |
| B2 | > 25 | – | – | – | – | – | – | – |
| B3 | – | 130 | 0.12 | 950000 | 130 | 0.12 | 900000 | – |
| B4 | – | – | – | – | 6.1 | 0.0078 | 1.3e+06 | – |
| B5 | – | – | – | – | 42 | 0.05 | 1.2e+06 | – |
| B6 | – | – | – | – | 25 | 0.027 | 1.1e+06 | – |
| B7 | – | – | – | – | 43 | 0.014 | 320000 | ~3 |
